By Kd is commonly meant the free concentration of one partner at which half of the binding sites on the other are occupied at equilibrium, for simple one-to-one binding. A higher Kd goes with a looser complex.

The target in the assay is VASP EVH1 domain (wild type) (human, UniProt P50552 2-115). The assay can be described thus: NMR titration.

B1: Zyxin proline rich region, residues 41-140 (domain or fragment, human, UniProt Q15942 41-140, looked up)
chain: PGDSEPPPAPGAQRAQMGRVGEIPPPPPEDFPLPPPPLAGDGDDAEGALGGAFPPPPPPIEESFPPAPLEEEIFPSPPPPPEEEGGPEAPIPPPPQPREK
B1 returned a Kd of 32.2 ± 1.7 µM.

Values taken from PMC5724578 (Biochemistry, 2017).
